Assay results taken from the nanobody polyreactivity screen of Harvey et al. (2022).

Assay: yeast display, Sf9 membrane polyspecificity reagent, FACS + sequencing; frameworks hold sequencing errors
Method in brief: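 Nanobodies came from a synthetic yeast display library in Saccharomyces cerevisiae BJ5465, induced with galactose for 36–48 hours and stained for 1 hour at 4 °C with 10% biotinylated, detergent-solubilized Sf9 membrane reagent. Cells were enriched on streptavidin microbeads and then FACS-sorted, with low and high (top ~1%) gates set on anti-HA fluorescence for expression and streptavidin fluorescence for reagent binding. Each polyreactivity label reflects the gate a clone came from. Genes were amplified by colony PCR, sequenced by MiSeq 2 × 250 and filtered by CDR length.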

Row | Sequence | polyreactivity (PSR sort gate)
1 | QVQLVESGVGIVQAGGSLRLSCAASGRIISGYAMGWYRHAPGKERELVATISSGGGTNYADSVKGRFTISRDNAKNTVYLQMNSLKPEDTAVYYCNKAWGYWSIRGVTHRYGYWGQGTQVTVSS | high polyreactivity
2 | QVQLVESGGGLVQAGGSLRLSCAASGFIFYKNAMGWYRQAPGKERELVAAINFSTGRTYYADSVKGRFTISRDNAKNTVYLQMNSLKPEDTAVYDCATKSANPRKYYYWGQVTQVTVSS | high polyreactivity
3 | QVQLVESGGGLVQAGGSLRLSCAASGFTFIDYTMGWYRQAPGKERELVARITDTGSTNYADSVKGRFTISRDNAKNTVYLQMNRLKPEDTAVYYCNKDDRNDRTIPGYDPEYDYWGQGTQVTVSS | low polyreactivity
4 | QVQLVESGGGLVQAGGSLRLSCAASGRIFKRNAMGGYRQAPGKDREVVADMSYGHSTYADSVKGRFTISRDNAKKTVYLQMNSLKPEDTAFYYCAKLYWIRTYDYWGQGTQVSVSS | low polyreactivity
5 | QVQLLESGGGLVQAGGSLRLSCADSGSIFPKNAIGWYRQAPGKERELVAGITSRTGRTYYADSVKGRFTISRDNSKNTVYLQMNRLKPEDTAVYYCAARIGGGPVKYDYWGQGTQVTVSS | high polyreactivity
6 | QVQLVESGGGLVQAGGSLRLSCAASGRIFTLYAMGWYRQAPGKERELVAAISYGGGGTYYADSVKGRFTISRDNAKNTVYLQMNRLKPEDSAVYFCATDDPLSQINEQGMDYWGQGTQVTVSS | low polyreactivity
7 | QVWLQESGRGLLQACGSLRLSCAASGTISRDIFMGWYRQAPGKEREFVATIAQGGITNYADSVKGRFTISRDNAKNTVYLQMNSVKPGDTAVYFCAARDGNCYWFYYWGQGTQVTVSS | high polyreactivity
8 | QVQLVESGGGLVQAGGSLRLSCAASGSIFVWYAMGWYRQAPGKERELVAVISYGGDRTSYADSVKGRFTISRDNAKNTVYLQMNSLKPEDTAVYYCAARPFYRGYYYWGQGTQVTVSS | high polyreactivity
9 | QVQLVESGGGLVQAGGSLRLSCAASNSSINAMGWYRQAPGKERELVAAIRWSGSSTYYADSEKGRFPISRDNAKTTVYLQMNSLKPEDTAVYYCAADTTTGDRGFDYWGQGTQVTVSS | high polyreactivity
10 | QVQLVESGGGLVQAGGSLRLSCAASGFIFYIYAMGWYRQAPGKERELVAAISWNGGSTYYADSVKGRFTISRDNAKNTVYLQMNSLKPEDTAVYYCATLARYRYGTGRFDYCGQGTQVTVSS | high polyreactivity
11 | QVQLVESGGGLVQAGGSLRLSCAASGSTFNWNAMGWYRQAPGKERELVAAISRSGGRTSYADSVKGRFTISRDNAKNTVYLQMNSLKPEDTAVYYCAAEKVGTRPSRDYDYWGQGTQVTVSS | high polyreactivity
12 | QVQLVESGGGIVQAGRSLRLSCSASGFIFAIKAMGWYRQAPGKERELVAAITGGGSTSYADSVKGRFTISRDNAKNTVYLQMNSLKPEDTAVYYCATDRLTYTKYGYWGQGTQVTVSS | low polyreactivity
13 | QVQLVESGGGLVQAGGSLRLSCAASGRTFKYYAMGWYRQAPGKERELVAAISRSGGSTYYADSVKGRFTISRDNAKNTVYLQMNSLKPEDTAVYYCNAEYLWIRHIAEDYWGQGTQVTVSS | low polyreactivity
14 | QVQLVESGGGLVQAGGSLRLSCAASGSIFVSYAMGWYRQAPGKERELVAAITGSGASTYYADSVKGRFTISRDNAKNTVYLQMNSLKPEDTAVYFCAAAPGKGPGYDYWGQGTQVTVSS | low polyreactivity
15 | QVQLVESGGGLVQAGGSLRLSCAASGSIFDYYTMGWYRQAPGKEREFVAGISDSGGSTNYADSVKGRFTISRDNAKNTVYLQMNSLKPEDTAVYYCNAEYVGWFYKYDYWGQGTQVTVSS | high polyreactivity
16 | QVQLVESRGGLVQAGGSLRLSCPASGFTNWRNDMGWYRQAPGKERELVADISTAGRTYYADSVKGRFTISRDNAKNTVYLQMNSLNPEDTAVYYCAKRSYYKDQPRYGYWGQGTQVTVSS | low polyreactivity
17 | QVQLVESGGGLVQAGGSLRLSCAASGGIFGGYAMGWYRQAPGKEGELVAVITSGGSTYYADSVKGRFTISRDNAKNTVYLQMNSLKPEDTAVYYCAADGNSYSYSTYDYWGQGTQVTLSS | low polyreactivity
18 | QVQLVESGGGLVHAGGSLRLSCAASGTTLAIYAMGWYRQAPGKERELVASISRVGSTNYADSVKGRFTISRDNAKNTVYLQRNSLKPEDTAVYYCAARRSSYVILRAYYYWGQGTQVTVSS | high polyreactivity
19 | QVQLVESGGGLVQAGGSLRLSCAASGITSCFSAMGWYRPAPGQERELVAGISSGGSTNYADSVKGRFTISRDNAKNTVYLQMTSLKPEDTAVYYCPATFYNRYETRYYYWGQGTQVTVSS | high polyreactivity
20 | QDQLVESGGGLVQAGGSLRLSCAASGSIFPHNAKGSYRQAPGKERELVASITSRGGITYYADSVKGRFTISRDNAKNTVYLQMNSLKPEDTAVYYCAADTYTDGYDYWGQGTQVTVSS | low polyreactivity
21 | QVQLVESGGGLVQAGGSLRLSCAASGSTFDAYAMGWYIQAPGKERELVAAITNGGSTNYADSVKGRFTISRDNAKNTVYLQMNSLQPEDTAVYYCNAQHRTVRGIFGRFNYWGQGTQVTVSS | low polyreactivity
22 | QVQLVESGGGLVQAGGSLRLSCAASGRTFWMNAMGWYRQATGKERELVATISSSSGSTTYADSVKGRFTISRDNAKNTVYLQMNSLKPEDTAVYYCNVDDPFYSGVVEFDYWGQGTQVTVSS | low polyreactivity

Row | Sequence | polyreactivity (PSR sort gate)
23 | QVQLVESGGGLVQAGGSLRLSCAASGFTFSKYVKGLYRQAPGKERELVAAISKRGGSTYYADSVKGRFTISRDYAKNTVYLQMNSLKPEDTAVYYCAARYYLEQILEKDYWVQGTQVTVSS | high polyreactivity
24 | KVQLVESGGGLVQAGGSLRLSCAASGSTFSYYAMGWYRQGPGKERELVAAITRSGYSTYYADSVKGRFTISLDNAKNTVYLQMNSLKPEDTAVYYCNTVSRYKYPKPTYYQSSFYYWGQGTQVTVSS | high polyreactivity
25 | QVQLVESGGGLVQAGGSLRLSCAASGRTFYRYVMGWYRQAPGKERELVAAISKSDGSTYYADSVKGRFTISRDNAKNSVYLQMNSLKPEDTAVYYCNARLSWSAFGYWGQGTQVTVSS | high polyreactivity
26 | QVQLVESGGCLVQAGGSLRLTCAASGIIFYAYAMGWYRQAPGKEREFVAAINNSGGRTYYADSVKGRFTISRDNAKNTVYLQMHSLKPEDTAVYYCAVYSYYRRTYRREMDYWGQGTQVTVSS | high polyreactivity
27 | QVQLVESGGGLVQAGGSLRLSCAASGLIFYYYAMGWYRQAPGKEREFVAAISRRGGSTYYADSVKGRFTISRDNAKNTVYLHMNSLKPEDTAVYYCAAKSGSFVHGGYQTPVYGSDYWGQGTQVTVSS | high polyreactivity
28 | QVQLVESRGGLVKAGGSLRLSCAASGRIFRKYDMGWYRQAPGKERELVAAISGTGITYYADSVKGRFTISRDNAKNTVYLQMNRLKPEDTAVYYCARGSKPRAWSWAFASATSIYEYWGQGTQLTVSS | low polyreactivity
29 | QVQLVESGGGLVQAGGSLRLSCAASGSIFSDYGMGWYRQAPGKERELVAGISWNGTSTYYADSVKGRFTISRDNAKNTVYLQMNSLKPEDTAVYYCAATFEGGISDLLDLDYWGQGTQVTVSS | low polyreactivity
30 | QVQLVESGGGLVQAGGSLRLTCAASGRTFWTNAMGWYRQAPGKVRELVAAIRNSGGRTYYADSVKGRFTISRDNAKNTVYLQMNSLKPEDTAVYYCNADFWYSYGYDYWGQGTQVTVSS | low polyreactivity
31 | QVQLVESGGGLVQAGGSLRLSCAASGSTFGDYTMGWYRQAPGKERELVAAISSGGSTYYADSVKGRFTISRDNAKNTVYLQMNSLKPEDTAVYYCAAYTKRYLYNYWGQGTQVTVSS | high polyreactivity
32 | QVQLVESGGGLVQAGGSLRLSCAASGRTIGWYTMGWYRQERGKERELVAAISGRGGSTTYADSVKGRFTISRDNAKNTVYLQMNSLKPEDTAVYYCAKRRVRGTTRRYGYWGQGTQVTVSS | high polyreactivity
33 | QVQLVESGGGLVQAGGSLRLSCAASGRTFYVNAMGWYRQAPGKERELVAAIRYSDGRTYYADSVKGRFTISRDNAKNTVYLQMNSLKPEDTAVYYCAVGSRSWPYDYWGQGTQVTVSS | high polyreactivity
34 | QVQLVESGGGLVQAGGRLRLSCAASGRIFVYYAMGWYRQAPGKERELVAAINSSGGRTYYADSVKGRFTISRDNAKNTVYLQMNSLKPEDTAVYYCAARKYSYPVAAHYYWGQGTQVTVSS | high polyreactivity
35 | QVQLVQSGGGLVQAGGSLRLSCAASGTTFNRNAMGWYRQAPGKEMELVDTITSAGSTYYADSVKGRFTISLDNAKNTVYLHMNSLKPEDTAVYYCAKGHQPGHVFHQEYGYYYWGQGTQGTVSS | low polyreactivity
36 | QVQLVESGGGLVQAGGSLRLSCAASGSTFTSNAMGWYRQAPGKERELVASISGSGGRTYYADSVKGRFTISRDNAKNTVYLQMNSLKPEDTAVYYCNAESRNLYSTQFDYLGQGTQVTVSS | low polyreactivity
37 | QVQLVESGGGLVQAGGSLRLSCAASGRIFKFNAMGWYRQAPGKERELVAATWSGGRTSYADSVKGRFTISRDNAKNTVYLQMNSLKPEDTAVYYCNAADWIDVQYDYWGQGNQVTVSS | low polyreactivity
38 | QVQLVESGGGLVQAGGSLRLSCAASGRTFSLDAMGWYRQAPWKERELVASITDSTGGSTYYADSVKGRFTISRDNAKNTVYLQMNSLKPEDTAVYYCAAQDSQYSDYQWWFGYWGQGTQVTVSS | low polyreactivity
39 | QVQLVESGGGLVQAGGSLRLSCAASGFTFPYYAMGWYRQAPGKERELVAAISSGGRTNYADSVKGRFTISRDNAKNTVYLQMNSLKPEDTAVYYCATRSYVFAWEFNYWGQGTQVTVSS | high polyreactivity
40 | QVQLVESVGGLVQAGGSLRLSCPASGSIFYANAMGGYRQAPGKERELVATISTGGGRTYYADSVKGRFTISRDKAKNTVYLQMNSLKAEDTAVYYCNATRNYARVRYYYWGKGTQVTVSS | high polyreactivity
41 | QVQLVESGGCLVQAGGRLRLICAASGRTFFFNAMGWYRQAPGKERELVAAISRGGSRTFYADSVKGRFTISRDNEKNTVYLQMNSLKPEDNAVYYCNDVAQSGRYDYWGQGTQVTVSS | high polyreactivity
42 | QVQLVESGGGLVQAGGSLRLSCAASGRIFDYYAMGWYRQAPGKERELVAAINRGGNTYYADSVKGRFTISRDNAKNTVYLQMNSLKPEETSVYYCNAQWYYLRYRYDYWGQGTQVTVSS | high polyreactivity
43 | QVQRVESGGGLVQAGGSLRLSCAASGSTFYFYARGWYRQAPGKERELVAVITDGGAITYYADSVKGRFTISRDNAKNTVYLQMNSLKPEDTAVYYCAASSFGWYTRYDYWGQGTQVTVSS | high polyreactivity
